Publication doi:10.1101/2024.10.02.616253 (bioRxiv, 2024)

Biological target: BTN3A1 ectodomain (human, UniProt O00481)
Experiment: SPR

Chain of BTN3A1 ectodomain (O00481 30-254): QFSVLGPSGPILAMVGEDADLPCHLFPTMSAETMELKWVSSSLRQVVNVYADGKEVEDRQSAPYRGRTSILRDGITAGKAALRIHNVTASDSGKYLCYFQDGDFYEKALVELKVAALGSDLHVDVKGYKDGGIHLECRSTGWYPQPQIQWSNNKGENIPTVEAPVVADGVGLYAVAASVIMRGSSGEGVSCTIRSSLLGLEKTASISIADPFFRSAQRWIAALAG

binding result: binds
B1: TH001 monoclonal antibody (antibody, V domains shown)
VH: EVHVKQSGAELARPGTSVKLSCKASGYTFTDYYLNWVKQRTGQGLEWIGEIYPGGGNTYYNEKFKGKATLTADKSSSTAYMQLSSLTSEDSAVYFCARRTTVVGDYWGQGTTLTVSS
VL: DVLMTQTPLSLPVSLGDQASISCRSSQSIVNSKGNTYLEWYVQKPGQSPKLLIYKVSNRFSGVPDRFSGSGSGTDFTLKISRVEAEDLGVYYCFQGSHVPWTFGGGTKLEIK
